Reference: publication PMC7175128, “Rational Engineering of the Substrate Specificity of a Thermostable D-Hydantoinase (Dihydropyrimidinase)” (High-Throughput, 2020)

Key:
O=C1CCNC(=O)N1 = system: T1, O=C1CCNC(=O)N1; test: purified protein; format: biochemical, Geobacillus stearothermophilus; settings: 0.1 M MOPS pH 8.0, 0.5 mM MnSO4, temperature of kinetics not stated (activity assays at 60 °C)
T1 construct: recombinant from pET-Hyd in E. coli BL21(DE3); 52 kDa; heat-treated, ultrafiltered, desalted

[1] = system: T2, O=C1NC(=O)C(Cc2c[nH]c3ccccc23)N1; test: purified protein; format: biochemical, Geobacillus stearothermophilus; settings: 0.1 M MOPS pH 8.0, 0.5 mM MnSO4, temperature of kinetics not stated (activity assays at 60 °C)
T2 construct: recombinant from pET-Hyd in E. coli BL21(DE3); 52 kDa; heat-treated, ultrafiltered, desalted

Row | Substance | Km (O=C1CCNC(=O)N1) | kcat (O=C1CCNC(=O)N1) | kcat/Km (O=C1CCNC(=O)N1) | Km [1] | kcat [1] | kcat/Km [1]
1 | D-hydantoinase (dihydropyrimidinase) of G. stearothermophilus ATCC 31783 (Geobacillus stearothermophilus; I190A) | 1120 ± 610 µM | 7.99 ± 0.9 s⁻¹ | 7090 ± 3200 M⁻¹ s⁻¹ | – | – | –
2 | D-hydantoinase (dihydropyrimidinase) of G. stearothermophilus ATCC 31783 (Geobacillus stearothermophilus) | 970 ± 220 µM | 11.2 ± 0.7 s⁻¹ | 11300 ± 2200 M⁻¹ s⁻¹ | – | – | –
3 | D-hydantoinase (dihydropyrimidinase) of G. stearothermophilus ATCC 31783 (Geobacillus stearothermophilus; F159A/W287A) | 5610 ± 2320 µM | 6.16 ± 1 s⁻¹ | 1100 ± 300 M⁻¹ s⁻¹ | 4300 ± 400 µM | 12.5 ± 0.50 s⁻¹ | 2900 ± 170 M⁻¹ s⁻¹
4 | D-hydantoinase (dihydropyrimidinase) of G. stearothermophilus ATCC 31783 (Geobacillus stearothermophilus; F159A) | 2890 ± 1270 µM | 21.8 ± 2.6 s⁻¹ | 7530 ± 2500 M⁻¹ s⁻¹ | 600 ± 580 µM | 4.16 ± 0.60 s⁻¹ | 6890 ± 5830 M⁻¹ s⁻¹
5 | D-hydantoinase (dihydropyrimidinase) of G. stearothermophilus ATCC 31783 (Geobacillus stearothermophilus; W287A) | 430 ± 130 µM | 2.76 ± 0.17 s⁻¹ | 6530 ± 1830 M⁻¹ s⁻¹ | 1660 ± 850 µM | 6.83 ± 0.97 s⁻¹ | 4130 ± 1630 M⁻¹ s⁻¹
